Source: patent US20210369854A1

Legend:
[1] = biological target: human CD5 on cells (MOLT-4 human T lymphoblast cell line; primary human T-cells) (human) (UniProt P06127); assay: flow cytometry on primary human T-cells, antibody titration, fluorophore-conjugated (AF488) secondary anti-IgG, MFI
[2] = biological target: purified human CD5 ectodomain (human) (UniProt P06127); assay: BLI (Octet Red96), antibody on anti-human Fc biosensors, 50 nM CD5 ectodomain, 25 C

- EC50 (read off the curve) [1]: 0.03 nM
- Response (nm) [2]: 0.67 nm
B1: anti-CD5 antibody 5D7 hIgG1 (humanized version of murine antibody 5D7) (antibody, V domains shown)
VH: QVTLKESGPVLVKPTETLTLTCTFSGFSLSTSGMGVGWIRQAPGKGLEWVAHIWWDDDVYYNPSLKSRLTITKDASKDQVSLKLSSVTAADTAVYYCVRRRATGTGFDYWGQGTLVTVSS
VL: NIVMTQSPSSLSASVGDRVTITCQASQDVGTAVAWYQQKPDQSPKLLIYWTSTRHTGVPDRFTGSGSGTDFTLTISSLQPEDIATYFCHQYNSYNTFGSGTKLEIK
